From PMC10979056 (Heliyon, 2024)
Substitutions are numbered along the chain they refer to.

B1: MsT001 (antibody, V domains shown)
VH: EVQLQQSGAEVVMPGASVKMSCKTSGYTFTDYLIHWVKQRPGQGLVWIGAIDTSDSYASYNQKFKGKATLTLDESSRTAYMQLSSLTSEDSAVYFCTGEGLDYWGQGTSVTVSS
VL: DIQMTQTPLSLPVSLGDQASISCRSSQSLVHSNGNTYLNWYLQKPGQSPKLLIYKVSYRFSGVPDRFSGSGSGTDFTLKISRVEAEDLGVYFCSQSTHVPPLTFGAGTKLELK
B2: MsT229 (antibody, V domains shown)
VH: EIQLVQSGPELVKPGASMKMSCKASGYSFTGYTMNWVKQSHGQNLEWIGLINPQTGGTSYNQNFRGKATLTVDKSSNTAYMELLSLTSEDSAVYYCARERGFDSPGFPYWGQGTLVTVSA
VL: DIQMTQTTSSLSASLGDRVTISCRASQDISNYLNWYQQKPDGTVKLLIYYTSRLHSGVPSRFSGSGSGTDYSLTISNLEQEDIATYFCQQGNTLPLTFGAGTKLELK
B3: MsT286 (antibody, V domains shown)
VH: B2 VH with E1Q, I2V, V5Q
VL: not shown
B4: MsT229-Bio (antibody, V domains shown)
VH: B2 VH
VL: B2 VL

Tests used:
[1] = molecular target: human TIM-3-His (human, UniProt Q8TDQ0); assay: ELISA
[2] = molecular target: cynomolgus TIM-3-hFc (Macaca fascicularis, UniProt A0A2K5U3G7); assay: BLI

Row | Binder | sensitivity (lowest detectable concentration of coated TIM-3-His) [1] [ng/mL] | Kd [2] [nM]
1 | B1 | 1 | –
2 | B2 | 10 | 0.0179
3 | B3 | 1 | 0.914
4 | B4 | 1 | –
